# Laboratory results reported in article PMC12692541.
# Tested on: HalTzlAAA homotrinucleopeptide (synthetic (designed))
# Assay: fluorescence anisotropy
# Conditions: none (unmodified); TB (tris/borate) buffer, 25 °C, 20 min incubation; RNA refolded at 90 °C for 5 min; salt and pH not given in the material
sequence,measurement,value
GCAGACUUUUAAUCUGC [ASLLys3],Kd,75.3 µM
